Biological target: T1, Tma endonuclease V H116A H116A (Thermotoga maritima) (UniProt Q9X2H9)
T1 sequence: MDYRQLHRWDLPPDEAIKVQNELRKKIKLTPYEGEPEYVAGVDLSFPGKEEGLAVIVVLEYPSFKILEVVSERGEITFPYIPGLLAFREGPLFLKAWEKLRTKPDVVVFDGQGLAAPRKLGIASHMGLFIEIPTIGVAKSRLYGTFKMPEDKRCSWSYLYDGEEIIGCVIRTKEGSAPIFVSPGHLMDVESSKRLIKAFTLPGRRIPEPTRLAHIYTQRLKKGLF
Assay: EMSA
Settings: deoxyinosine; MgCl2; bound about half as tightly as wt

nicked I/A product was tested, and the binding signal was 0.5 fold of wt.
